Legend:
Experiment in all cases: pull-down binding Z-score (relative to library population); higher = stronger binding
[1] = system: G-clamp-N3 (biotin conjugate); conditions: RNA library: Library-1 (pre-miRNA loops + repeats)
Outline: (§1)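 Streptavidin beads with 100 pmol of biotin-conjugated small molecule were incubated for 60 min at 25 °C with 1 μg of heat-folded Cy5- or Cy3-end-labelled RNA library in phosphate/NaCl/KCl buffer. Bound RNA was eluted in hot SDS after three washes and hybridised to a DNA barcode microarray at 55.5 °C for 20 h. Each binding score is a library-referenced Z-score, computed after beads-only subtraction and a trimmed mean of barcoded replicate probes.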

[2] = system: TO-3-N3 (biotin conjugate); conditions: RNA library: Library-2
Outline: as §1

[3] = system: TO-3-N3-2 (biotin conjugate); conditions: RNA library: Library-2
Outline: as §1

TO-N3 (biotin conjugate) = conditions: RNA library: Library-2
Outline: as §1

[4] = system: TO-N3-2 (biotin conjugate); conditions: RNA library: Library-2
Outline: as §1

| Sequence | pull-down binding Z-score [1] | pull-down binding Z-score [2] | pull-down binding Z-score [3] | pull-down binding Z-score (TO-N3 (biotin conjugate)) | pull-down binding Z-score [4] |
| --- | --- | --- | --- | --- | --- |
| UGGCUUCUGCCUCUUUCUUUGUGGAAGCCA [hsa-mir-4269] | 1.04 | 0.255 | -0.369 | -0.118 | -1.13 |
| UGGCUUGCACCGUGACUCCCUCUCACCAAGCAAGUGUC [hsa-mir-4440] | -0.837 | -0.387 | 0.0231 | 0.0846 | 0.607 |
| UGGGAGGUAAGAGCUCUUCACCCUUCA [hsa-mir-197] | -0.817 | -0.46 | -0.132 | -0.119 | 0.638 |
| UGGGAGUGAUCCCAACAGCUGAGCUCCCU [hsa-mir-7106] | 0.114 | 0.772 | -0.0877 | 0.756 | 0.529 |
| UGGGCAGUUCUUCUGCUGG [hsa-mir-1587] | 0.403 | 0.21 | 0.0756 | 0.149 | 0.377 |
| UGGGCCAAG [hsa-mir-3620] | -0.636 | 0.746 | 0.193 | 0.825 | 0.487 |
| UGGGCUCCCCUAGACUAGGACUCCA [hsa-mir-1825] | 0.254 | -0.367 | -0.507 | -0.37 | 0.508 |
| UGGGUAGAAAGUAUUAUUCUAUUCA [hsa-mir-664b] | -0.0123 | 0.0201 | -0.0975 | -0.28 | -0.83 |
| UGGGUAGGAAUAUCCUGGAUCCCCU [hsa-mir-3189] | -0.575 | -0.0266 | 0.312 | 0.102 | 0.501 |
| UGGGUCAAGGAGCCCA [hsa-mir-4530] | 0.476 | -0.163 | -0.211 | -0.3 | -0.3 |
| UGGGUGGAUCCUCUAUUUCCUUACGUGGGCCACUGG [hsa-mir-432] | 0.632 | 0.45 | -0.013 | 0.729 | 0.845 |
| UGGGUUAAGCCGAGCUGG [hsa-mir-4507] | 1.25 | 0.478 | 0.297 | 0.872 | 1.05 |
| UGGGUUGAACUGUGUGGACAAGCUCA [hsa-mir-181b-1] | -0.166 | -0.111 | -0.042 | 0.366 | 0.631 |
| UGGGUUGUGUCAGUGUCAGACCUC [hsa-mir-146a] | -0.421 | -0.496 | -0.00346 | 0.187 | 0.838 |
| UGGGUUUGAGUCUGAAUCAACUCA [hsa-mir-181b-2] | -0.649 | -0.728 | -0.254 | -0.805 | -0.572 |
| UGGUAUCCUGACCG [hsa-mir-1973] | -0.747 | 0.627 | -0.269 | 0.408 | 0.287 |
| UGGUCAGAUAUCCCAU [hsa-mir-8060] | -1.4 | -0.323 | -0.195 | -0.262 | -0.0919 |
| UGGUCAGGCGGCU [hsa-mir-3917] | 0.0721 | -0.142 | -0.061 | 0.0412 | 0.442 |
| UGGUGCAAUAAUUGG [hsa-mir-1302-7] | 1.95 | 0.418 | 0.492 | 0.4 | 0.245 |

| Sequence | pull-down binding Z-score [1] | pull-down binding Z-score [2] | pull-down binding Z-score [3] | pull-down binding Z-score (TO-N3 (biotin conjugate)) | pull-down binding Z-score [4] |
| --- | --- | --- | --- | --- | --- |
| UGGUGGAGAUGGAGAGCCCUGAGCCUCCA [hsa-mir-6777] | 0.173 | 0.164 | -0.0154 | 0.727 | 1.17 |
| UGGUGGGAGAGGAGCCCCACUGUGGAAGUCUGACCCCCACA [hsa-mir-6785] | -0.814 | 1.05 | 1.01 | 1.64 | 1.86 |
| UGGUGGGGGCCGGGGCAGGCCCAGCGAAA [hsa-mir-648] | 1.1 | 1.96 | 1.37 | 2.27 | 1.94 |
| UGGUGGUGAAUUCAUGAGUCGCCA [hsa-mir-3115] | 0.372 | -0.509 | -0.498 | -0.671 | -0.62 |
| UGGUUACGUGUUUGAUGGUUAAUCA [hsa-mir-376a-2] | 1.55 | -0.155 | -0.0388 | -0.0926 | -0.0517 |
| UGGUUAGCUUUUUUUUUUUUUUGAGAUGGAGUCUGGCUC [hsa-mir-8086] | -0.608 | -0.554 | 0.519 | -0.772 | -0.598 |
| UGGUUGAAUAUGUGAAUGGCAUCG [hsa-mir-449a] | 0.694 | -0.0496 | 0.0695 | 0.153 | 0.601 |
| UGGUUUCACUA [hsa-mir-3713] | -1.64 | 0.624 | -0.427 | 0.378 | -0.526 |
| UGGUUUGACACAGAGCUAAAUCA [hsa-mir-5007] | -0.866 | 0.00148 | 0.0372 | 0.596 | -0.172 |
| UGUAAAAUGUAAUAACAUUUCUUAUGUUUAAAACACUUUACA [hsa-mir-4801] | -0.257 | -0.755 | -0.401 | -0.783 | -1.14 |
| UGUAAAUAACUACAAUUCUCUUAACUCCGUAGCAGUUGC [hsa-mir-7844] | -1.5 | -0.267 | -0.0721 | -0.11 | 0.177 |
| UGUAAGUUUGCGAUGAGACACUACA [hsa-mir-144] | -0.844 | 0.0531 | 0.297 | 0.405 | 0.341 |
| UGUACAGGUGAGCGGAUGUUCUGCACA [hsa-mir-3120] | 0.0407 | 1.53 | 0.681 | 1.67 | 1.57 |
| UGUACGCUUUAUUUGUGACGUAGG [hsa-mir-1197] | -0.171 | -0.438 | -0.0204 | -0.195 | 0.0488 |
| UGUAUAGUAUUAUUCAAUACC [hsa-mir-1912] | 0.737 | -0.222 | -0.0289 | -0.445 | -0.694 |
| UGUAUAUAGCAUAUGUGUAUACAUACACACACACACACACACACACACA [hsa-mir-8485] | -1.14 | 0.396 | -0.16 | 0.167 | -0.143 |
| UGUAUGUGUAAAUACAUAUCCACACA [hsa-mir-4789] | -1.45 | 0.0268 | -0.00888 | -0.285 | -0.589 |
| UGUAUUUUUCAGCAAGGCAAGGGCUUUGAUGUCUUGUA [hsa-mir-8065] | -0.314 | -0.583 | -0.132 | -0.402 | -0.0538 |

Reference: the supplement of paper PMC11865577
